These results are taken from patent US20250144178A1 (KANAPH THERAPEUTICS, published 2025).

Residue numbers refer to the chain shown, from its start.

The labels stand for the following.
T1: recombinant human FAP (human, UniProt Q12884 26-760)
T1 construct: Soluble analyte in SPR; The description calls FAP a homodimer; also called rhFAP
T1 sequence (looked up): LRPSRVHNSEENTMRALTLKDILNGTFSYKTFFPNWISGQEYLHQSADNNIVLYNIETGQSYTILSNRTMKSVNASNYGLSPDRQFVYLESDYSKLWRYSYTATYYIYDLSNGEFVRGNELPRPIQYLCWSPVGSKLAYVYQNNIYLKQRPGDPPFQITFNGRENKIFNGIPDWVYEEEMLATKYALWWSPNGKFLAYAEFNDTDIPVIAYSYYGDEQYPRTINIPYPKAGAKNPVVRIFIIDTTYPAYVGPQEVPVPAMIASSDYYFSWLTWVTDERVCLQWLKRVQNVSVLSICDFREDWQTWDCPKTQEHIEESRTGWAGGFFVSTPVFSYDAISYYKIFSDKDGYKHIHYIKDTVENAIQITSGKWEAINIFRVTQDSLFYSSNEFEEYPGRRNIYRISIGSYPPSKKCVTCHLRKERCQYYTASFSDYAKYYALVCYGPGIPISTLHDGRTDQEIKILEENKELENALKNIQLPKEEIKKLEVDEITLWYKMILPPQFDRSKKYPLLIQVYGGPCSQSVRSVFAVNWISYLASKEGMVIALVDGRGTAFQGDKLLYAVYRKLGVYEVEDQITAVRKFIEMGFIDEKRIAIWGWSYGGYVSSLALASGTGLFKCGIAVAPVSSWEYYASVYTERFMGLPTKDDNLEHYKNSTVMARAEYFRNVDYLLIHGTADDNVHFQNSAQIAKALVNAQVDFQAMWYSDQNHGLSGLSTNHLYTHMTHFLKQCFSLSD

B1: T1.06 (anti-hu FAP/hu IL-12, hu IgG1 DANG (2 + 1, HC scFv)) (bispecific antibody)
heavy: QVQLVQSGAEVKKPGASVKVSCKTSRYTFTEYTIHWVRQAPGQRLEWIGGINPNNGIPNYNQKFKGRVTITVDTSASTAYMELSSLRSEDTAVYYCARRRIAYGYDEGHAMDYWGQGTLVTVSSASTKGPSVFPLAPSSKSTSGGTAALGCLVKDYFPEPVTVSWNSGALTSGVHTFPAVLQSSGLYSLSSVVTVPSSSLGTQTYICNVNHKPSNTKVDKKVEPKSCDKTHTCPPCPAPELLGGPSVFLFPPKPKDTLMISRTPEVTCVVVAVSHEDPEVKFNWYVDGVEVHNAKTKPREEQYGSTYRVVSVLTVLHQDWLNGKEYKCKVSNKALPAPIEKTISKAKGQPREPQVYTLPPSRDELTKNQVSLWCLVKGFYPSDIAVEWESNGQPENNYKTTPPVLDSDGSFFLYSKLTVDKSRWQQGNVFSCSVMHEALHNHYTQKSLSLSPGKGGGGSGGGGSGGGGSQVQLVQSGAEVKKPGASVKVSCKTSRYTFTEYTIHWVRQAPGQRLEWIGGINPNNGIPNYNQKFKGRVTITVDTSASTAYMELSSLRSEDTAVYYCARRRIAYGYDEGHAMDYWGQGTLVTVSSGGGGSGGGGSGGGGSGGGGSDIVMTQSPDSLAVSLGERATINCKSSQSLLYSRNQKNYLAWYQQKPGQPPKLLIFWASTRESGVPDRFSGSGFGTDFTLTISSLQAEDVAVYYCQQYFSYPLTFGQGTKVEIK
light: not shown
chain: not shown
notes: Anti-FAP scFv at the C-terminus of the heavy chain; knob-in-hole with the IL-12 arm
B2: T1.07 (anti-hu FAP/hu IL-12 mut2, hu IgG1 DANG (2 + 1, HC scFv)) (bispecific antibody)
heavy: B1 heavy
light: not shown
chain: not shown
notes: Anti-FAP scFv at the C-terminus of the heavy chain; knob-in-hole with the IL-12 mut2 arm
B3: T1.08 (anti-hu FAP/hu IL-12, hu IgG1 DANG (2 + 1, LC scFv)) (bispecific antibody)
heavy: QVQLVQSGAEVKKPGASVKVSCKTSRYTFTEYTIHWVRQAPGQRLEWIGGINPNNGIPNYNQKFKGRVTITVDTSASTAYMELSSLRSEDTAVYYCARRRIAYGYDEGHAMDYWGQGTLVTVSSASTKGPSVFPLAPSSKSTSGGTAALGCLVKDYFPEPVTVSWNSGALTSGVHTFPAVLQSSGLYSLSSVVTVPSSSLGTQTYICNVNHKPSNTKVDKKVEPKSCDKTHTCPPCPAPELLGGPSVFLFPPKPKDTLMISRTPEVTCVVVAVSHEDPEVKFNWYVDGVEVHNAKTKPREEQYGSTYRVVSVLTVLHQDWLNGKEYKCKVSNKALPAPIEKTISKAKGQPREPQVYTLPPSRDELTKNQVSLWCLVKGFYPSDIAVEWESNGQPENNYKTTPPVLDSDGSFFLYSKLTVDKSRWQQGNVFSCSVMHEALHNHYTQKSLSLSPGK
light: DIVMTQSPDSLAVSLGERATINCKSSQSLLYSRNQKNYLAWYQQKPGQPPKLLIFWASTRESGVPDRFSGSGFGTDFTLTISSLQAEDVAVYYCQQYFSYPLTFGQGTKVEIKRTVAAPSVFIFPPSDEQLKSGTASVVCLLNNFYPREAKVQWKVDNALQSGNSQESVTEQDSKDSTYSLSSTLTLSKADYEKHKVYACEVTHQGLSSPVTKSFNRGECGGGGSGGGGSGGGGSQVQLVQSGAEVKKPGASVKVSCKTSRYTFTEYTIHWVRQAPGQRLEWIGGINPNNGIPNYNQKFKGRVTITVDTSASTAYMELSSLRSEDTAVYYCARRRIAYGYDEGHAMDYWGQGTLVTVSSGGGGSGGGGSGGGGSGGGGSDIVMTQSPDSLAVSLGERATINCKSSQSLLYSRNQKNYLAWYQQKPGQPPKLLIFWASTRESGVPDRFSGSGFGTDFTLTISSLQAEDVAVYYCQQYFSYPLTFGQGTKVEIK
chain: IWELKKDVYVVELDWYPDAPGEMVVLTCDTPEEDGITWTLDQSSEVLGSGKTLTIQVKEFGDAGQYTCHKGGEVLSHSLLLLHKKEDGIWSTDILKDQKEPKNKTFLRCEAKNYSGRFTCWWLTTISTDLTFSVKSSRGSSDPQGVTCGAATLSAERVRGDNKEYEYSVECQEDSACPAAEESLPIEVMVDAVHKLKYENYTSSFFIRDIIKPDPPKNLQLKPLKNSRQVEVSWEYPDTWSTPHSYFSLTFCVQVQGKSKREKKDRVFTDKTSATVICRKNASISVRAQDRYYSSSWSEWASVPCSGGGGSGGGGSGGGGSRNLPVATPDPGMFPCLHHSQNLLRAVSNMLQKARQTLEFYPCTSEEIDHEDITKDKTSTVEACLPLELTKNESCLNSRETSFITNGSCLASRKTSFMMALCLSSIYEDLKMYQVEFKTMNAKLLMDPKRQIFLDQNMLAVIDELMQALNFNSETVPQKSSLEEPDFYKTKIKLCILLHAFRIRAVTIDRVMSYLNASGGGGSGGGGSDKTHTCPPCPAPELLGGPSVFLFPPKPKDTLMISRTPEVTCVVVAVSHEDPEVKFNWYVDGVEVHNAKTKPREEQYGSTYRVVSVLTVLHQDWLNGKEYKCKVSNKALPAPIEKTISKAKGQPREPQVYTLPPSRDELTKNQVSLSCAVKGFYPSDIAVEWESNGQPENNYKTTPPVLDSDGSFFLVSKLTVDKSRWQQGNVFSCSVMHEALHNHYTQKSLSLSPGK
notes: Anti-FAP scFv at the C-terminus of the light chain; knob-in-hole with the IL-12 arm
B4: T1.10 (anti-hu FAP/anti-hu FAP-hu IL-12, hu IgG1 DANG (2 + 1)) (antibody)
heavy 1: B3 heavy
heavy 2: QVQLVQSGAEVKKPGASVKVSCKTSRYTFTEYTIHWVRQAPGQRLEWIGGINPNNGIPNYNQKFKGRVTITVDTSASTAYMELSSLRSEDTAVYYCARRRIAYGYDEGHAMDYWGQGTLVTVSSASTKGPSVFPLAPSSKSTSGGTAALGCLVKDYFPEPVTVSWNSGALTSGVHTFPAVLQSSGLYSLSSVVTVPSSSLGTQTYICNVNHKPSNTKVDKKVEPKSCDKTHTCPPCPAPELLGGPSVFLFPPKPKDTLMISRTPEVTCVVVAVSHEDPEVKFNWYVDGVEVHNAKTKPREEQYGSTYRVVSVLTVLHQDWLNGKEYKCKVSNKALPAPIEKTISKAKGQPREPQVYTLPPSRDELTKNQVSLSCAVKGFYPSDIAVEWESNGQPENNYKTTPPVLDSDGSFFLVSKLTVDKSRWQQGNVFSCSVMHEALHNHYTQKSLSLSPGGGGGSGGGGSGGGGSIWELKKDVYVVELDWYPDAPGEMVVLTCDTPEEDGITWTLDQSSEVLGSGKTLTIQVKEFGDAGQYTCHKGGEVLSHSLLLLHKKEDGIWSTDILKDQKEPKNKTFLRCEAKNYSGRFTCWWLTTISTDLTFSVKSSRGSSDPQGVTCGAATLSAERVRGDNKEYEYSVECQEDSACPAAEESLPIEVMVDAVHKLKYENYTSSFFIRDIIKPDPPKNLQLKPLKNSRQVEVSWEYPDTWSTPHSYFSLTFCVQVQGKSKREKKDRVFTDKTSATVICRKNASISVRAQDRYYSSSWSEWASVPCSGGGGSGGGGSGGGGSRNLPVATPDPGMFPCLHHSQNLLRAVSNMLQKARQTLEFYPCTSEEIDHEDITKDKTSTVEACLPLELTKNESCLNSRETSFITNGSCLASRKTSFMMALCLSSIYEDLKMYQVEFKTMNAKLLMDPKRQIFLDQNMLAVIDELMQALNFNSETVPQKSSLEEPDFYKTKIKLCILLHAFRIRAVTIDRVMSYLNAS
light: not shown
notes: single-chain IL-12 at the C-terminus of the hole heavy chain
B5: T1.09 (anti-hu FAP/hu IL-12 mut2, hu IgG1 DANG (2 + 1, LC scFv)) (bispecific antibody)
heavy: B3 heavy
light: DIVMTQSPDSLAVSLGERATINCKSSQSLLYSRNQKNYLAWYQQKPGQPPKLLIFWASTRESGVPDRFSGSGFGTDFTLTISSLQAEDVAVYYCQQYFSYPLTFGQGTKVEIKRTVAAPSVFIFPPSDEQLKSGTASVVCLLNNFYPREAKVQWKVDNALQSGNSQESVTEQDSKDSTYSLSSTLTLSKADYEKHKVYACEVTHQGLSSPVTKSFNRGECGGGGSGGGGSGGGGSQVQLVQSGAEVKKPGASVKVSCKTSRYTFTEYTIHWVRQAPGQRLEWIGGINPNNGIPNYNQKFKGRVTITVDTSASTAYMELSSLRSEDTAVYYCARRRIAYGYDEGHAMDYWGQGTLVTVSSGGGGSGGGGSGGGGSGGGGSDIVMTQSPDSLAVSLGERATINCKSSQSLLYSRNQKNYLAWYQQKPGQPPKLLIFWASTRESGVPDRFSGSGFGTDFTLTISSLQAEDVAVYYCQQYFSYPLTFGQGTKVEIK
chain: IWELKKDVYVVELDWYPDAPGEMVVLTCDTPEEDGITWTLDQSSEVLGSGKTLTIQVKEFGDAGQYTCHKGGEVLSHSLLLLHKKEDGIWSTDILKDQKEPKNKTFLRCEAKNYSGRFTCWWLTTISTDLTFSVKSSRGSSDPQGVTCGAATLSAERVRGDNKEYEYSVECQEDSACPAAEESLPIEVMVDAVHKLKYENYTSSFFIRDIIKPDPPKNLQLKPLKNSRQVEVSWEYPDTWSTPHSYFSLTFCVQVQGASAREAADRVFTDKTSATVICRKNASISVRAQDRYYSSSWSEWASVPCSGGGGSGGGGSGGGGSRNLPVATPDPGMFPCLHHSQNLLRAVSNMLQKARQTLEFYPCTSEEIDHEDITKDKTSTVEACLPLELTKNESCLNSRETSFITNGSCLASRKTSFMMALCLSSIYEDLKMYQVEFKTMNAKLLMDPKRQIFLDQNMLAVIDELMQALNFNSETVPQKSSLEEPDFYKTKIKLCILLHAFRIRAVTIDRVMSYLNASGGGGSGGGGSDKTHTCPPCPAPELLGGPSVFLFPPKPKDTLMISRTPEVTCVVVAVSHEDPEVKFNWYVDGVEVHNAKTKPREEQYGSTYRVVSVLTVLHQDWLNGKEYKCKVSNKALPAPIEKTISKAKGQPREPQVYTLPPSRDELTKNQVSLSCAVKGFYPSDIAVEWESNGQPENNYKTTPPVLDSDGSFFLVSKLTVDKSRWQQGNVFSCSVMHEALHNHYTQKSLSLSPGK
notes: Anti-FAP scFv at the C-terminus of the light chain; knob-in-hole with the IL-12 mut2 arm
B6: T1.11 (anti-hu FAP/anti-hu FAP-hu IL-12 mut2, hu IgG1 DANG (2 + 1)) (antibody)
heavy 1: B3 heavy
heavy 2: B4 heavy 2 with K726A, K728A, K731A, K732A
light: not shown
notes: single-chain IL-12 mut2 at the C-terminus of the hole heavy chain
B7: T1.04 (anti-hu FAP/hu IL-12, hu IgG1 DANG (2 + 1)) (bispecific antibody)
heavy: QVQLVQSGAEVKKPGASVKVSCKTSRYTFTEYTIHWVRQAPGQRLEWIGGINPNNGIPNYNQKFKGRVTITVDTSASTAYMELSSLRSEDTAVYYCARRRIAYGYDEGHAMDYWGQGTLVTVSSGGGGSGGGGSGGGGSQVQLVQSGAEVKKPGASVKVSCKTSRYTFTEYTIHWVRQAPGQRLEWIGGINPNNGIPNYNQKFKGRVTITVDTSASTAYMELSSLRSEDTAVYYCARRRIAYGYDEGHAMDYWGQGTLVTVSSASTKGPSVFPLAPSSKSTSGGTAALGCLVKDYFPEPVTVSWNSGALTSGVHTFPAVLQSSGLYSLSSVVTVPSSSLGTQTYICNVNHKPSNTKVDKKVEPKSCDKTHTCPPCPAPELLGGPSVFLFPPKPKDTLMISRTPEVTCVVVAVSHEDPEVKFNWYVDGVEVHNAKTKPREEQYGSTYRVVSVLTVLHQDWLNGKEYKCKVSNKALPAPIEKTISKAKGQPREPQVYTLPPSRDELTKNQVSLWCLVKGFYPSDIAVEWESNGQPENNYKTTPPVLDSDGSFFLYSKLTVDKSRWQQGNVFSCSVMHEALHNHYTQKSLSLSPGK
light: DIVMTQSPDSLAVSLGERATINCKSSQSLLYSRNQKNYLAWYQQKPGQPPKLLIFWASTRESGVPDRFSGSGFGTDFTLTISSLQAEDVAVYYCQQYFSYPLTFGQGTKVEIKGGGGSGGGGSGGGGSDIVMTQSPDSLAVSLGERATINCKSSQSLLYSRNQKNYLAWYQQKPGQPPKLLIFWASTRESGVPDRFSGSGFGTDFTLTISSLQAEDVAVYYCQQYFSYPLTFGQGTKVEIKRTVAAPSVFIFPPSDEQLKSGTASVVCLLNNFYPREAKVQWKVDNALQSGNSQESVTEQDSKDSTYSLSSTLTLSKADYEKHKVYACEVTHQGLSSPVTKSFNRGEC
chain: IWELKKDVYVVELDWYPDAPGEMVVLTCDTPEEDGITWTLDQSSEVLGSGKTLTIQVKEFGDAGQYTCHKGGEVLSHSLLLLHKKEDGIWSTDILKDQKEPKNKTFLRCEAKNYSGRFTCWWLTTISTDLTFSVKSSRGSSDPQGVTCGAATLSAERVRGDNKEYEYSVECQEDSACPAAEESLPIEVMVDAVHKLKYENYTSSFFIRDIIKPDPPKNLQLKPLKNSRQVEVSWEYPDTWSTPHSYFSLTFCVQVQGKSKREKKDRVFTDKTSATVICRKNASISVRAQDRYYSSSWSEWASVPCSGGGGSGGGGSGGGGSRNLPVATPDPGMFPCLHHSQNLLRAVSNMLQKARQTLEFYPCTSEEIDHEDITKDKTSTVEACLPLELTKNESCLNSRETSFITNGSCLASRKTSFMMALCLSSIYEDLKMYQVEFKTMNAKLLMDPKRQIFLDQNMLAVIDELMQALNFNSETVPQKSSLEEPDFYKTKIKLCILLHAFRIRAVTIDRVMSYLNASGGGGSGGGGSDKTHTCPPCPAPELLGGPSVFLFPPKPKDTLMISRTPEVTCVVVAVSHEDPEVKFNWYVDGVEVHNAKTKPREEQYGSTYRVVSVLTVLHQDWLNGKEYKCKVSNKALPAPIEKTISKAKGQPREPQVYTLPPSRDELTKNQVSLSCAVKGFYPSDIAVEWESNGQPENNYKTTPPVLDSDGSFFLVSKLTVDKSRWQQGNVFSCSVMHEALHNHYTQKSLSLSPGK
notes: DVD-Ig form of the anti-FAP arm, knob-in-hole with the IL-12 arm
B8: T1.05 (anti-hu FAP/hu IL-12 mut2, hu IgG1 DANG (2 + 1)) (bispecific antibody)
heavy: B7 heavy
light: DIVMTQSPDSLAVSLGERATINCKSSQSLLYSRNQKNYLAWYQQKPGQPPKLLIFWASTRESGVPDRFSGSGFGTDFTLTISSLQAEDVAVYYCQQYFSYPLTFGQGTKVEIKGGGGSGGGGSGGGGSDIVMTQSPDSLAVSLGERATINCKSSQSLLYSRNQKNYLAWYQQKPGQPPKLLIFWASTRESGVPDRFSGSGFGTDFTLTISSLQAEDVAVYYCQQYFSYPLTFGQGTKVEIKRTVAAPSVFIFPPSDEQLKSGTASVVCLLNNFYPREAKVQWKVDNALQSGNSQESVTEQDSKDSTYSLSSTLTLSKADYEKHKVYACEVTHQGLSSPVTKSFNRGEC
chain: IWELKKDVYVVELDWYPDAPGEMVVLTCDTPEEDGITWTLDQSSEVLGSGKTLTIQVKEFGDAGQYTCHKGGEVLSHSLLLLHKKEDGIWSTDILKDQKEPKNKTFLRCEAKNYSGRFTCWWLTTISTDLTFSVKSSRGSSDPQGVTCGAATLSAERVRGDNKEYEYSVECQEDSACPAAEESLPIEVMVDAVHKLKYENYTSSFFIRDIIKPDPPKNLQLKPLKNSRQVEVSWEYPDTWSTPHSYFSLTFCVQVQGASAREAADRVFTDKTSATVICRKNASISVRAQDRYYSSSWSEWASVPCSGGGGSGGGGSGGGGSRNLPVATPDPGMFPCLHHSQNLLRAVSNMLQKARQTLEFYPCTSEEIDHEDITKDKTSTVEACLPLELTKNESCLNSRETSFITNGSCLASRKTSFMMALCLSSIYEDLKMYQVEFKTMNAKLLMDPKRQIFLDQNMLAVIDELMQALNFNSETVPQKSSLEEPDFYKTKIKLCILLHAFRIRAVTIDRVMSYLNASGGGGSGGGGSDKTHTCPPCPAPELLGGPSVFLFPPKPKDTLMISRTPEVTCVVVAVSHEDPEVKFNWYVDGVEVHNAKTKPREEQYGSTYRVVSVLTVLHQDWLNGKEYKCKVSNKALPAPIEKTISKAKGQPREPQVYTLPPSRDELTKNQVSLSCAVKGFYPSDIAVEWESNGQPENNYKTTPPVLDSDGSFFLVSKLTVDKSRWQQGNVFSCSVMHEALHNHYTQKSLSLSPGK
notes: DVD-Ig form of the anti-FAP arm, knob-in-hole with the IL-12 mut2 arm

In the assay the target is T1, recombinant human FAP. The assay can be described thus: SPR, captured by anti-human IgG (Fc), human FAP analyte, 1:1 binding model. As to the method: Bindings of T1.04, T1.05, T1.06, T1.07, T1.08, T1.09, T1.10 and T1.11 to recombinant human […] were identified by surface plasmon resonance (SPR). The surface of the CM5 chip was activated with a 1:1 mixture of […] (N-hydroxysuccinimide) and […] (1-Ethyl-3-(3-dimethylaminopropyl) carbodiimide), and 25 μg/ml of anti-human IgG (Fc) antibody was immobilized for 400 seconds at a rate of 10 μl/min. The remaining active ester groups were blocked with 1 M ethanolamine.
Specifically, human proteins T1.04, T1.05, T1.06, T1.07, T1.08, T1.09, T1.10 and T1.11 were diluted to 1 μg/ml, 1 μg/ml, 1 μg/ml, 1 μg/ml, 0.5 μg/ml, 0.5 μg/ml, 0.5 μg/ml, and 1 μg/ml, respectively, and reacted on a CM5 chip immobilized with an anti-human IgG (Fc) antibody. The recombinant human FAP was diluted to 25 nM or 50 nM in 1×HBS-EP+buffer solution and diluted by serial dilution. The diluted recombinant human FAP was reacted at a rate of 30 μl/min. The association and dissociation times were 180 seconds and 400 seconds, respectively. After the dissociation, stabilization was performed for 60 seconds, and then a regeneration was performed for 30 seconds with a 10 mM glycine pH 1.5 solution at a rate of 30 μl/min.
The term Kd denotes the constant that tells how readily two partners part at equilibrium. For orientation: koff means the rate constant with which the complex falls apart. As usually defined, the kon is the rate constant with which the complex forms. As for B1, the Kd was 0.596 nM, the dissociation rate constant (koff) is 6.22e-05 s⁻¹ and the association rate constant (kon) came to 104000 M⁻¹ s⁻¹.

Take B2: the Kd was determined as 0.128 nM, the koff is 7.64e-05 s⁻¹ and the association rate constant (kon) came out at 597000 M⁻¹ s⁻¹.

With B3, the dissociation constant (Kd) is 0.177 nM, the koff was determined as 7.87e-05 s⁻¹ and the association rate constant (kon) is 446000 M⁻¹ s⁻¹.

As for B4, the Kd is 0.479 nM, the koff was 7.48e-05 s⁻¹ and the kon came out at 156000 M⁻¹ s⁻¹.

For the molecule B5, the Kd is 0.214 nM, the off-rate (koff) was found to be 0.000111 s⁻¹ and the on-rate (kon) stood at 517000 M⁻¹ s⁻¹.

For the molecule B6, the dissociation constant Kd is 0.267 nM, the koff was 3.19e-05 s⁻¹ and the kon is 120000 M⁻¹ s⁻¹.

Take B7: the Kd is 0.0257 nM, the off-rate constant (koff) stood at 1.5e-05 s⁻¹ and the on-rate constant (kon) is 583000 M⁻¹ s⁻¹.

As to B8, the Kd turned out to be 0.0932 nM, the koff was 5.83e-05 s⁻¹ and the kon is 625000 M⁻¹ s⁻¹.
